The assay addresses JUNV GP1 (receptor-binding domain), subunit within the GPC on PV membranes (Junin mammarenavirus, strain MC2 …, UniProt P26313). As to the kind of experiment: cryo-EM structure. Conditions: one partner purified.

Chain of JUNV GP1 (receptor-binding domain), subunit within the GPC on PV membranes (P26313 whole entry, looked up, the tested form may be a part): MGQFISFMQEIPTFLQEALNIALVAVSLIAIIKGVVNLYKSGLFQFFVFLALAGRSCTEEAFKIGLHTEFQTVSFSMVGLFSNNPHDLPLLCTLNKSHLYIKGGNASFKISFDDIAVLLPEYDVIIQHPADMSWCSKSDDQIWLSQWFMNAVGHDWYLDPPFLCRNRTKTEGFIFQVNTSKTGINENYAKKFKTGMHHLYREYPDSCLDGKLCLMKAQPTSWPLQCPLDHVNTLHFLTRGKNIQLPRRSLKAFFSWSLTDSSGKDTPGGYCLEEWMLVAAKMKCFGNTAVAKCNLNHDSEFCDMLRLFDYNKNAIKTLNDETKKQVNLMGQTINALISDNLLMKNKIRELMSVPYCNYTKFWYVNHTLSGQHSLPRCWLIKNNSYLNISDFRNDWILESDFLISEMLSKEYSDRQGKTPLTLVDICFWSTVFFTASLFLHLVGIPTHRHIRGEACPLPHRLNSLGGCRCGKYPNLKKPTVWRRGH

B1: GFP-fused Fab of the neutralizing antibody CR1-28 (Fab, V domains shown)
VH: QVQLVESGGGVVQPGRSLRLSCAASGFTFSSSAMHWVRQAPGKGLEWVAVIWSDGSNENYADSVKGRFTISRDNSKNTLYLQMSSLRAEDTAVYYCATDKTYVSGYTSTWYYFNYWGQGTLVTVSG
VL: DIQMTQSPSTLSASVGDRVTITCRASQSIDNWLAWYQQKPGKAPKLLIYTASRLESGVPSRFSGSGSGTEFTLTISSLQPDDFATYYCQHRTFGQGTKVEIK
notes: also called CR1–28Fab; GFP-fused CR1–28Fab; source: HEK293T, transfected, purified from culture media (Ni-NTA)
As for B1, the binding result is “binds”.

B2: GB03-BE08 (J199) Fab (Fab, V domains shown)
VH: VALVESGGGLVQPGGSLKLSCASGASFSNAGMSWVRQTPDRRLELVAAINRDGDITYHPDSVKGRFTISRDNAKNTLYLQMSSLKSEDTAMYYCAREDYYGLYFYVMDYWGQGTSVTVA
VL: QIVLTQSPAIMSASPGEKVTITCSASSIVSYMHWFQQKPGTSPKLWIYGTSNLASGVPARFSGSGSGTSYSLTISRMEAEDAATYYCQQRNSYPPTFGGGTKLEIK
notes: source: bought: BEI Resources (J199), ficin digested, dialyzed into TBS pH 8
For the molecule B2, the binding result is listed as “binds”.
